These results are taken from doi:10.1101/2024.11.05.621662 (bioRxiv, 2024).

The data set concerns the molecule itself. Nature of the data set: SEC-MALS. Background: In gel filtration, larger molecules generally elute earlier.

B1: TFG PB1 domain (amino acids 1-96), wild type (domain or fragment, human, UniProt Q92734 1-96, looked up)
chain: MNGQLDLSGKLIIKAQLGEDIRRIPIHNEDITYDELVLMMQRVFRGKLLSNDEVTIKYKDEDGDLITIFDSSDLSFAIQCSRILKLTLFVNGQPRP
The term stoichiometry N denotes the number of molecules, sites or subunits per partner or assembly. Turning to B1, the “stoichiometry N” value was 8.
